From paper doi:10.1101/2023.08.11.552966 (bioRxiv, 2023)

Experiments:
RAD51 WT = RAD51 WT (Homo sapiens, UniProt Q06609 1-339); assay: BLI
cross-linking = molecular target: the molecule itself; assay: cross-linking

Binder | Kd (RAD51 WT) [nM] | binding result (cross-linking)
TCCTTTTGATAAGAGGTCATTTTTGCGGATGGC (ssDNA) [33m DNA] | 3840 | –
GCCAUCCGCAAAAAUGACCUCUUAUCAAAAGGA (ssRNA) [33m RNA] | 530 | –
His-tagged RAD51 S97A (non phosphorylable mutant) (natural protein) MAMQMQLEANADTSVEEESFGPQPISRLEQCGINANDVKKLEEAGFHTVEAVAYAPKKELINIKGISEAKADKILAEAAKLVPMGFTTATEFHQRRAEIIQITTGSKELDKLLQGGIETGSITEMFGEFRTGKTQICHTLAVTCQLPIDRGGGEGKAMYIDTEGTFRPERLLAVAERYGLSGSDVLDNVAYARAFNTDHQTQLLYQASAMMVESRYALLIVDSATALYRTDYSGRGELSARQMHLARFLRMLLRLADEFGVAVVITNQVVAQVDGAAMFAADPKKPIGGNIIAHASTTRLYLRKGRGETRICKIYDSPCLPEAEAMFAINADGVGDAKD | – | binds
His-tagged RAD51 S97D (phosphomimetic mutant) (natural protein) MAMQMQLEANADTSVEEESFGPQPISRLEQCGINANDVKKLEEAGFHTVEAVAYAPKKELINIKGISEAKADKILAEAAKLVPMGFTTATEFHQRRDEIIQITTGSKELDKLLQGGIETGSITEMFGEFRTGKTQICHTLAVTCQLPIDRGGGEGKAMYIDTEGTFRPERLLAVAERYGLSGSDVLDNVAYARAFNTDHQTQLLYQASAMMVESRYALLIVDSATALYRTDYSGRGELSARQMHLARFLRMLLRLADEFGVAVVITNQVVAQVDGAAMFAADPKKPIGGNIIAHASTTRLYLRKGRGETRICKIYDSPCLPEAEAMFAINADGVGDAKD | – | binds
